Among the data in the supplement of paper PMC12042874 are amyloid nucleation score values, retold here.

± gives the uncertainty stated by the source.

A short description of this series: amyloid nucleation score (Sup35N fusion, yeast selection) (log enrichment); library NNK3; higher = more nucleation; inactive = no reads after selection. The gist of the method: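 Plasmid inserts were Illumina-sequenced at input and output from psi-negative yeast expressing Sup35N fused to peptides of 20 random codons. The yeast were induced with 100 μM copper sulfate for 24 hours and grown 7 days at 30°C on medium lacking adenine and uracil, and sequences with under 100 input reads were excluded. Nucleation score is the DiMSum log enrichment of output over input reads, centred on the mode score of non-aggregating sequences.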
As to NKAIILHVM, the amyloid nucleation score result was “inactive”.

LYMNFSMDGIASVSLGVLRL: the amyloid nucleation score is 0.633 ± 0.19.

As for NSCYRRHMCWCFSKAEFLTL, the amyloid nucleation score entry was “inactive”.

For WYDGQRFCRELYNCPSAPGL, the amyloid nucleation score result was “inactive”.

In the case of LVYNLNRKRGCKGVPVLRYS, the amyloid nucleation score entry was “inactive”.

As to HVSVFMCLCTVDTR, the amyloid nucleation score was 1.33 ± 0.078.

NRLNIFIYSFNVAVVSI displayed an amyloid nucleation score of 2.31 ± 0.082.

Consider RYFTLISYVVVVEVSLEKPW, for which the amyloid nucleation score result was “inactive”.

With ACIFNLGGVHRCICCVLFNI, the amyloid nucleation score entry was “inactive”.

Regarding STNPPNRL, the amyloid nucleation score entry is “inactive”.

Regarding VALLTYFWYGPIKGVAS, the amyloid nucleation score result is “inactive”.

With YLSICVMFLVASRVRSISSI, the amyloid nucleation score entry was “inactive”.

FRVLDRSKKVNYRSFLYLIR: the amyloid nucleation score result is “inactive”.

For the substance MIGLDDWVLALRVRRCSLLV, the amyloid nucleation score result is “inactive”.

With LWASTVGVFVGRRSPYLMCW, the amyloid nucleation score entry was “inactive”.

Regarding IRSCIIRSFTYMLGLH, the amyloid nucleation score entry is “inactive”.

Consider IKGIPKSIGSSSLGLHNHTV, for which the amyloid nucleation score result is “inactive”.

In the case of AVCFRVLCFKLLTT, the amyloid nucleation score entry is “inactive”.

With FIVSPPSNGANVY, the amyloid nucleation score entry is “inactive”.

With VSIKSRLRCLSVVQDNSRCV, the amyloid nucleation score entry was “inactive”.

Consider VMNHLRRTNLVPTSAVNAYN, for which the amyloid nucleation score entry is “inactive”.

Consider YLGIFWRFFLRFSRGVTVWL, for which the amyloid nucleation score was -0.488 ± 0.96.

In the case of GNITTRLHFFTNGFRPSFHG, the amyloid nucleation score result is “inactive”.

For VTGIIRRIYLLF, the amyloid nucleation score entry is “inactive”.

Turning to TCRMVRGSMMDSAVV, the amyloid nucleation score entry is “inactive”.

For the substance PLSLSGGDDDRLLSLEMLVL, the amyloid nucleation score result was “inactive”.

Regarding IFIQLLPYVFSTVEVSDFVG, the amyloid nucleation score came out at 0.625 ± 0.38.

In the case of SFESVVYYSWRFVAKFKFWT, the amyloid nucleation score entry is “inactive”.

In the case of SLCRRWVNLDTGSPYGTL, the amyloid nucleation score entry is “inactive”.

Consider LNHRIWLTLFGSASRLVKFD, for which the amyloid nucleation score entry is “inactive”.

Regarding DCLSVEFVLNTRVAYWCTCA, the amyloid nucleation score is -0.092 ± 0.52.

In the case of TCYFVYTRFFWGDRESKSTF, the amyloid nucleation score entry was “inactive”.

Turning to RRGIWDSVKMEKFL, the amyloid nucleation score result is “inactive”.

Take VSSRECMLRPLPDTKTRLAA: the amyloid nucleation score result was “inactive”.

In turn, RVQWALLSIKGHCS returned an amyloid nucleation score of 0.645 ± 0.24.

On to CVEVLWERPSGTRAGMVGLL, for which the amyloid nucleation score was -0.792 ± 1.4.

With EIRRCTPCLLWVLLLFAINR, the amyloid nucleation score entry was “inactive”.

For the substance VSNHSIDIGRLRLGFTC, the amyloid nucleation score entry is “inactive”.

For the substance YGMSTG, the amyloid nucleation score result is “inactive”.

Take RLRVG: the amyloid nucleation score result is “inactive”.

Turning to ANLRSLTR, the amyloid nucleation score result is “inactive”.

As to LQDMPGNGFPVWVDISFSSY, the amyloid nucleation score entry was “inactive”.

In the case of CRRPKRNH, the amyloid nucleation score result is “inactive”.

YLNNWMSWRRSLRRHIEVVR: the amyloid nucleation score result is “inactive”.

As to CSNLVLP, the amyloid nucleation score was -0.765 ± 1.4.

RAGDNIFWTIAKCTRNTHVM: the amyloid nucleation score result was “inactive”.

As for LQYYLRPRFNLRLYGAIPPA, the amyloid nucleation score result was “inactive”.

Substance TCTYCRFRLSSLVSW registered an amyloid nucleation score of 0.366 ± 0.42.

As for KLFVVHSREGEFIFSI, the amyloid nucleation score entry was “inactive”.

As to HRINWRIHTTYISTYWKKCM, the amyloid nucleation score result was “inactive”.

The substance LFITSHREGDWWLSTVRIHF came in with an amyloid nucleation score of 0.367 ± 0.27.

As to PNRLTPFQRSTSSHLQNVGQ, the amyloid nucleation score result was “inactive”.

Take FCEFDIDVVLCTHRLYCNRY: the amyloid nucleation score result was “inactive”.

As to CFYEGYWREITNMAFLILRP, the amyloid nucleation score entry is “inactive”.

On to LTFCVSMKCKIW, for which the amyloid nucleation score result is “inactive”.

As to GNNCPRVSIFNREAKIDNVL, the amyloid nucleation score result was “inactive”.

For the substance GVFCSVINLIDATVVN, the amyloid nucleation score result is “inactive”.

In the case of RVRRLT, the amyloid nucleation score result is “inactive”.

In the case of WTKKFRVMTACLLEWYVDEK, the amyloid nucleation score result is “inactive”.

For KLWPM, the amyloid nucleation score result is “inactive”.

As to RISKA, the amyloid nucleation score entry is “inactive”.

For FCALALTQMLINMAH, the amyloid nucleation score entry was “inactive”.

The substance VANIFVVISIVGVDTRLFIV returned an amyloid nucleation score of 0.519 ± 0.23.

FLISIWGGIGNDNVSVVGVG: the amyloid nucleation score result was “inactive”.

As for KGSTSAVIGRYGWLRMRC, the amyloid nucleation score result is “inactive”.

In the case of VIFDLVVGCGAVL, the amyloid nucleation score result is “inactive”.

Consider WVDYLYNSLESIRMCWANVY, for which the amyloid nucleation score result is “inactive”.

YLLVLMVERF: the amyloid nucleation score entry is “inactive”.

As for QSYIRKQFRIQSHISFSDNS, the amyloid nucleation score entry is “inactive”.

For RRKRYCISDLA, the amyloid nucleation score result was “inactive”.

For the substance QCRHPGSRP, the amyloid nucleation score entry was “inactive”.

As for SNSHWIYWYTNPGQHRPSHR, the amyloid nucleation score result was “inactive”.

For SERYEEMTFSDGYMFSRDDL, the amyloid nucleation score result was “inactive”.

On to QMEKHLRAASVSVCTSQSPV, for which the amyloid nucleation score entry is “inactive”.

Regarding DSICDTCYAVGCLPRVCWVV, the amyloid nucleation score entry was “inactive”.

Take TWILFFVN: the amyloid nucleation score was found to be 1.78 ± 0.062.

Turning to YVAVGKKLNHRSSSSLSRFF, the amyloid nucleation score entry was “inactive”.

Consider IVRDFLAGPIKHSTFEVIDF, for which the amyloid nucleation score result is “inactive”.

Consider VFCSSDTAFPEGTTVSSRSR, for which the amyloid nucleation score entry is “inactive”.

For the substance FMVDTHFGNAFCFYMYCC, the amyloid nucleation score stood at 2.26 ± 0.051.

On to LTRFRDIRFLINKNGACKEW, for which the amyloid nucleation score was -0.213 ± 0.71.

The substance MLNGVLNSKVPMNRRTSGNL displayed an amyloid nucleation score of 0.537 ± 0.13.

Take IMICILHLC: the amyloid nucleation score entry was “inactive”.

With FRPLFSESHYPASLTGTGHN, the amyloid nucleation score result was “inactive”.

With VRLRVEYAKSEWKMIFGEFY, the amyloid nucleation score entry is “inactive”.

As to DINCSWTLQNGRGTLSE, the amyloid nucleation score entry was “inactive”.

As for IGHSTTYHKRQECSLVQWSS, the amyloid nucleation score entry was “inactive”.

As to LCVRYDMSEGLRKGWWYGVG, the amyloid nucleation score entry was “inactive”.

Consider SFLRTVNGGRFSSVCSL, for which the amyloid nucleation score entry is “inactive”.

Turning to VQCRSHWHWRRPGPEARSVW, the amyloid nucleation score result is “inactive”.

As to GCSWLFSSLCFLGDNALGST, the amyloid nucleation score entry is “inactive”.

On to YKYGPARCRKRGDSCAKGGG, for which the amyloid nucleation score result was “inactive”.

With LCALTS, the amyloid nucleation score result is “inactive”.

In turn, VAFYVTHGAIVYFSMGCAGI yielded an amyloid nucleation score of 1.63 ± 0.11.

Turning to SLMSSRSCVTRTLLARQVYL, the amyloid nucleation score result was “inactive”.

Turning to NYSAFRGSMIV, the amyloid nucleation score entry is “inactive”.

LFILFSNGYTVGYNSDNRSF came in with an amyloid nucleation score of 0.601 ± 0.22.

NRSCRDFRYY: the amyloid nucleation score result was “inactive”.

For NSWDYYVAWPFVRFG, the amyloid nucleation score was -0.947 ± 0.98.

Take YSYNQIWFLLV: the amyloid nucleation score entry is “inactive”.

Take PTFCNQNFGNTFGCKRFYLS: the amyloid nucleation score result is “inactive”.

For RNLSLDLT, the amyloid nucleation score entry was “inactive”.

With CIPLLFWVWSSNVCVRLKLQ, the amyloid nucleation score result was “inactive”.

With NWDTNFVYSIGIDIY, the amyloid nucleation score result is “inactive”.

Take LYSETWEY: the amyloid nucleation score entry was “inactive”.

On to GRSGYH, for which the amyloid nucleation score result was “inactive”.

On to SSWPN, for which the amyloid nucleation score result is “inactive”.

Regarding NPIYDSQLPATSCMQAFNAF, the amyloid nucleation score result was “inactive”.

Turning to QSRMPCSLFILVNGDHDDMA, the amyloid nucleation score entry was “inactive”.

Take SVNFELYDMITRC: the amyloid nucleation score result is “inactive”.

For KKSKRISLGR, the amyloid nucleation score entry is “inactive”.

As to YSEYMVTNRKVSAGHTARWD, the amyloid nucleation score result is “inactive”.

For WLVAEFQTYPMTQHLYVSMR, the amyloid nucleation score entry was “inactive”.

GGTAHNIGCVSRLVMPARGI: the amyloid nucleation score result was “inactive”.

Take DISSLR: the amyloid nucleation score result was “inactive”.

Consider LGHGFWQFSYLG, for which the amyloid nucleation score entry was “inactive”.

As to FNAYNIFVKVPNVMPSS, the amyloid nucleation score worked out at 2.19 ± 0.09.

Consider RGSWSYQILWINTVRW, for which the amyloid nucleation score is -0.347 ± 0.53.

As to GIYRYVQGWHDAPHGGNCTE, the amyloid nucleation score result was “inactive”.

For the substance QCYCGLTPTANLDPLMRIWD, the amyloid nucleation score entry was “inactive”.

For the substance KGWLSSWVA, the amyloid nucleation score result was “inactive”.

With LRCTVRSLAKFVFYRFKTGG, the amyloid nucleation score result is “inactive”.

For the substance HLVRIASIRLNCDPLYRSVV, the amyloid nucleation score entry was “inactive”.

For the substance DLVFWTINWSPGAHGTTSSG, the amyloid nucleation score result is “inactive”.

In the case of LNLQNVVYGTMSEHSASSVD, the amyloid nucleation score result was “inactive”.

As to YSFSNVLVLGSTGPGTSSQA, the amyloid nucleation score result is “inactive”.

Take LIYCYMFMITAVGRACMPCR: the amyloid nucleation score entry was “inactive”.

For AVISKDCDSYAIYHHVFHST, the amyloid nucleation score entry was “inactive”.

For the substance FNMCLASQAVIADLWVVFSW, the amyloid nucleation score was -0.054 ± 1.3.

Take GGNVCRGVKIIVMWAMIFVM: the amyloid nucleation score entry was “inactive”.

As for HSMALITSSRVLVRVLTIMR, the amyloid nucleation score result was “inactive”.
